# Assay results taken from article PMC10484726, “Archaeal Hel308 suppresses recombination through a catalytic switch that controls DNA annealing”.
# T1: Mth-Hel308 Y586A (Methanothermobacter thermautotrophicus, UniProt O26901 1-690, Y586A)
# T1 sequence: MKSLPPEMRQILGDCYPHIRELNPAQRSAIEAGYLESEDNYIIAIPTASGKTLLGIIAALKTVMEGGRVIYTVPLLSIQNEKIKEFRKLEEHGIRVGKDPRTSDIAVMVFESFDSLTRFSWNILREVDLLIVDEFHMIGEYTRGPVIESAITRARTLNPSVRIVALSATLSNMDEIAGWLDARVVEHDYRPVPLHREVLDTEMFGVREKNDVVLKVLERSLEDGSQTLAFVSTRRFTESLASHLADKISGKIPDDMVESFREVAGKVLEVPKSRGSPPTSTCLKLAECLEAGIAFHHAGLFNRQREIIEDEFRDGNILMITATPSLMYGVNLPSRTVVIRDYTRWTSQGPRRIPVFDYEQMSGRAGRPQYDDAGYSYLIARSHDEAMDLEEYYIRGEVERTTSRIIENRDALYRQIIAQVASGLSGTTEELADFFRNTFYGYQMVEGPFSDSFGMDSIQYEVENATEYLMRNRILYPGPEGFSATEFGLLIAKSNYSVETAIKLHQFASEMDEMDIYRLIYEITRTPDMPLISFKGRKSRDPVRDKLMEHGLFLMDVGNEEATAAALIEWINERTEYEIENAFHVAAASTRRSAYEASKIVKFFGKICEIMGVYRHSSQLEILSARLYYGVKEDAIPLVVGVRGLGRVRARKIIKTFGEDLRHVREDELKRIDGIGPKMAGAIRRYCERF
# T2: Mth-Hel308 R591A (Methanothermobacter thermautotrophicus, UniProt O26901 1-690, R591A)
# T2 sequence: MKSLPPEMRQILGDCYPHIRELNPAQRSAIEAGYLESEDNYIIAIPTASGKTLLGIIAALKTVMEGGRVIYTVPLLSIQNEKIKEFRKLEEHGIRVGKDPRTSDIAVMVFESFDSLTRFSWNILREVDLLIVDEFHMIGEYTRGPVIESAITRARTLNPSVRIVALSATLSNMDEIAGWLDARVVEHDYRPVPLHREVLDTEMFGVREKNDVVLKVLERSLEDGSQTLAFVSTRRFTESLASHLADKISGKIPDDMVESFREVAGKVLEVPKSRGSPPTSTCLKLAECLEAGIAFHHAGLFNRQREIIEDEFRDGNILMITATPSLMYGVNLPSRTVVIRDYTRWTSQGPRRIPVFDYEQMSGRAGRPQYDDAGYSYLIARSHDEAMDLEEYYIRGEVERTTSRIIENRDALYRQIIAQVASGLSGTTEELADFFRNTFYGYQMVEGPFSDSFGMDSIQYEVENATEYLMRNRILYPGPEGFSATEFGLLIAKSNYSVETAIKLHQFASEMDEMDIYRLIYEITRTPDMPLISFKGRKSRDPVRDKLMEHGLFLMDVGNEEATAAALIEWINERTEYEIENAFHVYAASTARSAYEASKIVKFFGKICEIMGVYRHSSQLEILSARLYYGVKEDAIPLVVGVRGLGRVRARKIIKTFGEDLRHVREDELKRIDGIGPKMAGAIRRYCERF
# T3: Mth-Hel308 F295A (Methanothermobacter thermautotrophicus, UniProt O26901 1-690, F295A)
# T3 sequence: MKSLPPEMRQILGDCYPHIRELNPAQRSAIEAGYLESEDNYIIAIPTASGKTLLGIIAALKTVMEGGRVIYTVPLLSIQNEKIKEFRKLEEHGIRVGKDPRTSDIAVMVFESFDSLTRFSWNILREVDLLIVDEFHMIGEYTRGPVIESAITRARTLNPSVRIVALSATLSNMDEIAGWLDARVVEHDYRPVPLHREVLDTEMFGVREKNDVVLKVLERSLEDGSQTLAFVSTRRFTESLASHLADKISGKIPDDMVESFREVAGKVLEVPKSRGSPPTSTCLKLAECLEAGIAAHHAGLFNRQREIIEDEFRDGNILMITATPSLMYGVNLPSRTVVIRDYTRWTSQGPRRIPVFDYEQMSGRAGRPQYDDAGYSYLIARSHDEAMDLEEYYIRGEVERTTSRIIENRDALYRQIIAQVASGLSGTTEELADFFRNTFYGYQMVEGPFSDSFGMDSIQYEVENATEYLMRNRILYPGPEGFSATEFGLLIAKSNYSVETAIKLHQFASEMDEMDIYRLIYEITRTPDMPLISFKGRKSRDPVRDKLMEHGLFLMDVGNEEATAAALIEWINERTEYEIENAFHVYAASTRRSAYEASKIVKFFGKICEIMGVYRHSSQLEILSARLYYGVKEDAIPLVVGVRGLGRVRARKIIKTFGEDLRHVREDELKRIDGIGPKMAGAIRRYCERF
# B1: forked DNA substrate (dsDNA)
# DNA 1: GTCGGATCCTCTAGACAGCTCCATGATCACTGGCACTGGTAGAATTCGGC
# DNA 2: CAACGTCATAGACGATTACATTGCTACATGGAGCTGTCTAGAGGATCCGA
# Assays:
# Details in all cases: protein: recombinant; tags: N-terminal His6; label: Cy5 (end label); fork
# Mth-Hel308 Y586A = target: T1, Mth-Hel308 Y586A; experiment: EMSA; 5 mM EDTA; 25 nM DNA; similar to wild type; EMSA: 20 mM Tris-HCl pH 7.5, 100 ug/ml BSA, 7% glycerol, 25 mM DTT, 5 mM EDTA, 25 nM Cy5-DNA; 5% TBE gel; no added salt stated; 37 C 10 min stated for duplex DNA reactions
# Mth-Hel308 R591A = target: T2, Mth-Hel308 R591A; experiment: EMSA; 5 mM EDTA; 25 nM DNA; EMSA: 20 mM Tris-HCl pH 7.5, 100 ug/ml BSA, 7% glycerol, 25 mM DTT, 5 mM EDTA, 25 nM Cy5-DNA; 5% TBE gel; no added salt stated; 37 C 10 min stated for duplex DNA reactions
# Mth-Hel308 F295A = target: T3, Mth-Hel308 F295A; experiment: as above
binder,measurement,setting,value
B1,binding result,Mth-Hel308 Y586A,binds
same,binding result,Mth-Hel308 R591A,binds
same,Kd,Mth-Hel308 F295A,19.3 nM
